Test results published in patent US20250002543A1.

Experiments:
[1] = target: immunoglobulin immobilized on IgG Sepharose 6 Fast Flow (manufactured by Cytiva); experiment: IgG Sepharose 6 Fast Flow column; linear gradient 0.1 M citrate pH 6.5 to pH 2.2; pH at the peak of the eluted binding protein
[2] = target: Herceptin containing human κ light chain subgroup 1 (Vκ1) (manufactured by Chugai Pharmaceutical Co., Ltd.); experiment: ELISA; Herceptin immobilised, binding protein at 2 ug/mL, dissociation with 0.05 M citric acid pH 2.7 for 2 min, absorbance ratio to wells without dissociation

Substance “FpL_C3 (wild-type), immunoglobulin-binding domain C3 of protein L (FpL) of Finegoldia magna” has an Elution pH [1] of 2.9 pH and an Elution rate [%] [2] of 76%.
